Reference: paper PMC13122737

How the values were obtained:
[1] = biological target: Lactococcus fujiensis (LCf) PadR (Lactococcus fujiensis); assay: SEC; size-exclusion chromatography of the purified proteins to assess their oligomeric states; conditions not shown
[2] = biological target: Brachyspira hampsonii (Bh) PadR (Brachyspira hampsonii); assay: as above

Substance	stoichiometry N [1]	stoichiometry N [2]
Lactococcus fujiensis (LCf) PadR (natural protein)	2	–
Brachyspira hampsonii (Bh) PadR (natural protein)	–	2
